The record followed here is patent US20260070984A1 (Boehringer Ingelheim, published 2026).

Changes are numbered by the printed parent chain.

The chains are these.
B1: Chimeric 820C3 (antibody, V domains shown)
VH: QIQLQQSGPELVKTGASVKISCKASGNTFNSNYIQWVKQRPGQGLEWIGWIYPGDGSTNYSEKFKGKTTLTADKSSSTAYMLVSSLTSEDSAVYFCARYGPVPFDYWGQGTTLSVSS
VL: DIQMTQTTSSLSASLGDRVTISCSASQDIFNYLNWYQQKPDGTVKLLIYYTSSLHSGVPSRFSGSGSGTDFSLTISNLEPEDIATYYCQQYSNLPYTFGGGTKLEIK
notes: Mouse variable domains in human IgG4Pro (Ser228Pro) backbone; also called chimeric 820C3 in IgG4Pro; 820C3-4P
B2: Antibody E (antibody, human IgG4 S228P, kappa, V domains shown)
VH: EVQLVESGGGLVQPGGSLRLSCAASGFTFSDYYMSWVRQAPGKGLEWVAYISSGGGSSYYPDLVKGRFTISRDNAKQSLYLQMQSLRAEDTAVYYCARLPHYFAMDYWGQGTLVTVSS
VL: DIQMTQSPSSLSASVGDRVTITCQASQSISSDYLHWYQQKPGKAPKLLIYRTSNLESGVPSRFSGSGSGTDFTFTISSLQPEDIATYYCQQGTSLPRAFGQGTKLEIKR
notes: Humanized 723C2, human IgG4Pro/kappa; also called 723C2-IgG4Pro-461-40 with IgK-462-08
B3: Antibody B (antibody, human IgG4 S228P, kappa, V domains shown)
VH: B2 VH with Q77N
VL: B2 VL with S57T
notes: Humanized 723C2, human IgG4Pro/kappa; also called 723C2-IgG4Pro-461-41 with IgK-462-07
B4: Antibody A (antibody, human IgG4 S228P, kappa, V domains shown)
VH: B2 VH with A49S, S58K, Q77N, Q84S
VL: B2 VL with Q24S, E56A
notes: Humanized 723C2, human IgG4Pro/kappa
B5: Antibody D (antibody, human IgG4 S228P, kappa, V domains shown)
VH: B2 VH with Q84N
VL: B2 VL
notes: Humanized 723C2, human IgG4Pro/kappa; also called 723C2-IgG4Pro-461-44 with IgK-462-08

T3 sequence (B0LAJ3 entry or part of it limits assumed): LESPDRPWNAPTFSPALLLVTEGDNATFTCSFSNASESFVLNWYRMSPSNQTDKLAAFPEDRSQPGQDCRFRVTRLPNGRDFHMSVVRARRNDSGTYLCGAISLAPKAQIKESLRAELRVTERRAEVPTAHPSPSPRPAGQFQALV
T1 sequence (Q15116 25-167 limits assumed): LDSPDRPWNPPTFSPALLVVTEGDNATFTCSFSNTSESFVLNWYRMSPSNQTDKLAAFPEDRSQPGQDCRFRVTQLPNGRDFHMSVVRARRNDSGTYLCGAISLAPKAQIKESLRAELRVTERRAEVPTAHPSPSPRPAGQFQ

The first experiment addresses T1, recombinant human PD-1 (human, UniProt Q15116 25-167, limits assumed).
T1 construct: Soluble recombinant protein used in SPR; also called PDCD1; purified recombinant human PD-1
Briefly: SPR, ProteOn XPR36. As for the experimental part:
Kinetics and binding affinities were measured using the ProteOn™ XPR36 (Biorad, Hercules, CA) surface plasmon resonance optical biosensor using material generated from transient transfection following single column purification.
On the technique in general: SPR reads the build-up and loss of mass on a sensor chip optically.
The term Kd denotes the constant that tells how readily two partners part at equilibrium. A word on the koff: it is a measure of how fast the partners let go of each other. Usually kon stands for the second-order rate constant of association. Regarding B1, the dissociation constant (Kd) stood at 2.71 nM, the koff worked out at 0.000286 s⁻¹ and the on-rate (kon) stood at 106000 M⁻¹ s⁻¹.

For another experiment, the target named is T2, human PD-1 expressed on cells (human, UniProt Q15116 25-288). Briefly: cell-based or functional assay.
T2 sequence (Q15116 25-288): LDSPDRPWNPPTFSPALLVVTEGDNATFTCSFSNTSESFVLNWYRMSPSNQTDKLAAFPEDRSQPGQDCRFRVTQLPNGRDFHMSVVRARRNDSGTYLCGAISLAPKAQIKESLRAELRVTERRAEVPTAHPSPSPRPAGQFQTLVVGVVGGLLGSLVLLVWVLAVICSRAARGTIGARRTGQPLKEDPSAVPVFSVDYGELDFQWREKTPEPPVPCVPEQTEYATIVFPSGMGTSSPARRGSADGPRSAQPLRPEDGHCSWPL
For B1, the “Emax Values (%), inhibition of NFAT activity” value came out at 40% and the “IC50 Values (nM), inhibition of NFAT activity” value was determined as 0.14 nM.

The target in a further experiment is T2, human PD-1 expressed on cells. The experiment can be described thus: cell-based or functional assay. This is another data set of the same source.
In the case of B2, the “Emax Values (%), Average, inhibition of IFNγ” value was 47.8% and the “IC50 Values (pM), Geomean, inhibition of IFNγ” value was 8.1 pM.
With B3, the “Emax Values (%), Average, inhibition of IFNγ” value stood at 48.9% and the “IC50 Values (pM), Geomean, inhibition of IFNγ” value amounted to 18.4 pM.
In the same order, the values of B4 are 49% and 7.4 pM.
In the same order, the values of B5 are 50.1% and 18 pM.
In the same order, the values of B1 are 56.7% and 38.5 pM.

The target is the same in another experiment. Briefly: cell-based or functional assay. This is another data set of the same source.
Consider B2, for which the “Emax Values (%), Average, inhibition of IL-17A” value amounted to 59.2% and the “IC50 Values (pM), Geomean, inhibition of IL-17A” value was found to be 8.1 pM.
In the same order, the values of B3 are 63.4% and 25.3 pM.
In the same order, the values of B4 are 69.8% and 41.1 pM.
In the same order, the values of B5 are 63.9% and 31.9 pM.

The next experiment addresses T1, recombinant human PD-1. Briefly: SPR, ProteOn XPR36, 1:1 binding model. As for the experimental part: Antibody PD1AB-6-4P (antibody in IgG4Pro backbone disclosed in WO2017/058859 to Celgene) was also tested.
As for B2, the Kd was found to be 2.77 nM, the off-rate (koff) was found to be 0.000492 s⁻¹ and the kon stood at 178000 M⁻¹ s⁻¹.
For the molecule B3, the Kd is 1.62 nM, the koff came to 0.000421 s⁻¹ and the kon came out at 259000 M⁻¹ s⁻¹.
In the same order, the values of B4 are 2.73 nM, 0.000434 s⁻¹ and 159000 M⁻¹ s⁻¹.
For B5 the same measures were 2.58 nM, 0.000574 s⁻¹ and 222000 M⁻¹ s⁻¹.

Another experiment addresses T3, cynomologous PD-1 (cynomolgus monkey, UniProt B0LAJ3 25-170).
T3 construct: Used in SPR; also called cynomolgus PD-1; recombinant cynomologus PD-1
The experiment can be described thus: SPR, ProteOn XPR36, 1:1 binding model.
Experimental: C) Affinity and kinetic data for the anti-PD-1 antibodies binding to cynomologous PD-1 were measured on the ProteOn™ XPR36 surface plasmon resonance optical biosensor, and globally fit to a 1:1 binding model (Table 11).
For the molecule B2, the Kd came out at 38.2 nM, the koff turned out to be 0.00663 s⁻¹ and the kon worked out at 173000 M⁻¹ s⁻¹.
In the same order, the values of B3 are 32.9 nM, 0.00558 s⁻¹ and 169000 M⁻¹ s⁻¹.
With B4, the Kd worked out at 26.5 nM, the koff turned out to be 0.00473 s⁻¹ and the kon turned out to be 178000 M⁻¹ s⁻¹.
For B5 the same measures were 45.2 nM, 0.00674 s⁻¹ and 149000 M⁻¹ s⁻¹.
